The data set deals with the molecule itself. In words: intact protein mass determination (UHPLC-HRMS); reverse-phase C4 column, water/acetonitrile with 0.1% formic acid, electrospray, QTof; covalent (disulphide) dimer.

This is an account of results in paper PMC9929448, “Structural analysis of the interaction between human cytokine BMP-2 and the antagonist Noggin reveals molecular details of cell chondrogenesis inhibition” (The Journal of Biological Chemistry, 2023).

One may read the stoichiometry N as a count of units in the complex or per binding partner.

B1: Noggin (residues 28-232) (natural protein)
chain: MQHYLHIRPAPSDNLPLVDLIEHPDPIFDPKEKDLNETLLRSLLGGHYDPGFMATSPPEDRPGGGGGAAGGAEDLAELDQLLRQRPSGAMPSEIKGLEFSEGLAQGKKQRLSKKLRRKLQMWLWSQTFCPVLYAWNDLGSRFWPRYVKVGSCFSKRSCSVPEGMVCKPSKSVHLTVLRWRCQRRGGQRCGWIPIQYPIISECKCSC
modifications: biotin (biotinylated Noggin in the BLI experiments); methionine oxidation, mainly on the N-terminal methionine, in part of the sample
notes: Noggin, residues 28-232 of UniProt Q13253; Disulphide-linked homodimer; No tag (pET-17(b)); for the crystal, SEC-MALS and cell assays no biotinylation is mentioned; also called antagonist Noggin; recombinant Noggin
As for B1, the “stoichiometry N” value is 2.
